The values that follow are results of earlier work, collected in paper PMC2934757.

This series deals with IGF-1 (Homo sapiens) (UniProt P05019).
Chain of UniProt P05019 (P05019 49-118): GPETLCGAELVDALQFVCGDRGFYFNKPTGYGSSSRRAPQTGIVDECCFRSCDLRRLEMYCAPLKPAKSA

As to IGFBP-2 1-248 (from UniProt P18065), the Kd (as a rule, the constant that tells how readily two partners part at equilibrium) is 7 nM.
